Laboratory results taken from the nanobody polyreactivity screen of Harvey et al. (2022).

Assay: yeast display, Sf9 membrane polyspecificity reagent, FACS + sequencing; frameworks hold sequencing errors
How it was run: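 Nanobodies came from a synthetic yeast display library in Saccharomyces cerevisiae BJ5465, induced with galactose for 36–48 hours and stained for 1 hour at 4 °C with 10% biotinylated, detergent-solubilized Sf9 membrane reagent. Cells were enriched on streptavidin microbeads and then FACS-sorted, with low and high (top ~1%) gates set on anti-HA fluorescence for expression and streptavidin fluorescence for reagent binding. Each polyreactivity label reflects the gate a clone came from. Genes were amplified by colony PCR, sequenced by MiSeq 2 × 250 and filtered by CDR length.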

| Sequence | polyreactivity (PSR sort gate) |
| --- | --- |
| QVQLVESGGGLVQAGGSLRLICAASGRTLWWYAMGWYRQAPGKESELVAAIDYSDGNTYYADSVKGRFTISRDYAKNTVYLQMNSLKPEDTAVYFCAAEGYYNYGSYYWGQGTQVTVSS | high polyreactivity |
| QVQLVESGGGLVQAGGRLRLSCAASGRIFYWNVMGWYRPAPGKERELVAAISSSGASTSYADSVKGRFTISRDNAKNTVYLQMNSLKPEDTAVYYCAARTRRNYRQYNYWGQGTQVTVSS | high polyreactivity |
| QVQLVESGGGLVQAGGSLRLSCAASGSILGYYAMGWYRQAPGKERELVAAISSGGSTNYADSVKGRFTISRDNAKNTVYLQMNSLKPEDTAVYYCAADRTYHGGFDYWGQGTQVTVSS | low polyreactivity |
| QVQREESGGGLVQAGGSLRLSCAASGITFVLNVMGWYRQAPGKETELLAAISASGGRTYYADSVKGRFTISRDNAKNTVYLQMNSLKPEDTAVYYCNAVLPRYTFRSGVFEYDWGQGTQVTVSS | high polyreactivity |
| QVQLVEAGAGLVQAGGSLRLSCAASGGIFGQYTRGWSRHAPGKERELVAGISTSGGSTYYADSVKGRFTISRDYAKNTVYLQMNSLKPGDTAVYYCAAGSYRKRVTNYSYRTPYGYWGHGTQVTVSS | high polyreactivity |
| QVQLVESGGGLVQAGGSLRLSCAASGSTFPRNAMGWYRQAPGKERELVAAISYSGGRTYYADSVKGRLRISRDNAKNTVYLQMNSLKPDDTAVYYCAASPGVGDSRYYYWGQGTQVTVSS | high polyreactivity |
| QVQLVESGGGLVQAGGSLRLSCAASGFIITSYAMGWYRQAPGKERELVATISSSGGTTYYADSVKGRFTISRDTAKNTVYLQMNSLKPEDTAVYYCAKDAFGWGRVYYYRSGYWGQGTQVTVSS | high polyreactivity |
| QVQLVDSGGGLVQAGGSLRLSCAASGRIFELYAMGWNTQATGKDRELVAVITNGGSTYYADSVKGRFTISRDNAKNTVYLQLNSLKPEDTAVYYCNGRRGYNRVGGSYGYWGQGTQVTVSS | low polyreactivity |
| QVQLVESGGGLVQAGGSLRLSCAASGSTFIRNAMGWYRQAPGKERELVAAITTDGSTDYADSVKGRFTISRDNAKNTVYLQMNSLKPEDTAVDYCNAEYRLDALSYDYLGQGTQVTVSS | low polyreactivity |
| QVQLVESGGGLVQAGGSLRLSCAASGFIFYKYAMGWYRQAPGKEREFVAAISSRGSRTYYADSVKGRFTISRDNAKNTVYLQMNSLKPEDTAVYYCAAGYWARLYDYDYWGQGTQVTVSS | high polyreactivity |
| QVQLVESGGGLVQAGGSLRLSCAASGRIFYTNAMGWYRPAPGKERELVAAITRSGGRTYYADSVKGRFTISRDNAKNTVYLQMNSLKPEDTGVYYCAKVGYGHTGMGYWGQGTQVTVSS | high polyreactivity |
| QVQLVESGGGLVQAGGSLRLSCAASGFTFGYYAMGWYRQAPGKERELVAAINWSGGRTYYADSVKGRFTISRDNAKNTVYLQMNSLKPEDTAVYYCAASSRTKLYYWGQGTQVTVSS | high polyreactivity |
| QVQLVESGGGLVQAGGSLRLSCAASGSIFPDYAMGWYRQAPGKERELVAAIDTSTTDTYYADSVKGRFTISRDNAKNTVYLQMNSLKPEDTAVYYCAADAYDDPYGYWGQGTQVTVSS | high polyreactivity |
| QVQLVESGGGLVQAGGSLRLSCAASGGTFGFYAMGWYRQAPGKERELVAAISWSGVGTYYADSVKGRFTISRDNAKNTVYLQMNSLKPEATAVYYCAAKQYTQKISSPGTILRYYYWGQGTQVTVSS | high polyreactivity |
| QVQLVESGGGLVQAGGSLRLSCAASGSTLGAYAMGWYRQAPGKERELVAAISRSGGNTYYADSVKGRFTISRDNAKNTVYLQMNSLKPEDTAVYYCAAVKLFLGLCYDYWGQGTQVTVSS | low polyreactivity |
| QVQLVESGGGLVQAGGSLRLSCAASGRILRFYAMGWYRQAPGKERELVATISRSGGSTYYAESVKGRVTISRDNAKNTVDLQMNSLKPEDTAVDYCNAKFKGVSYKMDYWGQGTQVTVSS | high polyreactivity |

| Sequence | polyreactivity (PSR sort gate) |
| --- | --- |
| QVQLVESGGGLVQAGGSLRLSCAASGLIFVDNAMGWYRPAPGKEREVVAAIDSGGSTNYADSVKGRFTISRDNAKNTVYLQMNSLKPEDTAVYYCAADWIYAPWYYQESVEYYYWGQGTQVTVSS | low polyreactivity |
| QVQLVESGGGLVQAGGSLRLSCAASGLTFYTNAMGWYRQAPGKERELVAAITSSGGRTYYADSVKGRFTISRDNAKNTVYLQMNSLKPEDTAVYYCAADARRPSIPEMYYCGQGTQVTVSS | high polyreactivity |
| QVQLVESGGGLVQAGGSLRLSCAASGITFDYYSMGWYRQAPGTERELVAAISWGGGSTYYADSVKGRFTISRDNAKNTVYLQMNSLKPEDTAVYYCAADIVSSPSSYVPPGDYWGQGTQVTVSS | low polyreactivity |
| QVQLVESGGGIVQAGCSLRFSCAASGGTFGYYTLGWYRQAPGKERQLVAAISSGGGTDYADSVKGRFTISRDNAKNTVSLQMNSLKAEDTAVYYCNAQWLEWHYVFLPSYTMDYWGLGTQVTVSS | low polyreactivity |
| QVQIVESGGGLVQAGGSLRLTCAASGLTFTGNAMGWYIQAPGKERELVAAISWSGGSKYYADSVKGRYTISRDNAKNTVYLQMNSLQPEDTAVYYCADPDARYDYWGQGTQVTVSS | high polyreactivity |
| QVQLVESGGGLVQAGGSLRLSCAASGIIFESYAMGCYRQAPGKERELVAAISSRGGSTYYADSVKGRFTISRDNSKNTVYLQMNSLKPEDTAVYYCAADVAAGVSSYPTKYSYDYWGQGTQVTVSS | low polyreactivity |
| QVQLLESGGGLVQAGGSLRLSCAASGSIFLFYDMGLYRHAPGKERELVATITSGTNTYADSVKGRFTISRDNAKNTGYLQMNSLKPEDTAVYSCAAGFSTASQLDYWGQVTQVTVSS | low polyreactivity |
| QVQLVESGGGLVQAGGSLRLSCAASGSTFYRNAMGWYRQAPGKERELVAVITERGGNTYYADSVKGRFTISRDNAKNTVYLQMNSLKPEDTAVYYCNKQGFVDRGRYRYYWGQGTQVTVSS | high polyreactivity |
| QVQLVDSGGGLVQAGGSHRLSCADSGTFVYNAMGWYRQAPGKEREFVAAITKSGTSTSYADSVKGRFTISRDNAKNTVYLQMNSLIPEATAVYYCNARRYWYRRAYSVGYDYWGQGTQVTVSA | high polyreactivity |
| QVQLVESGGGLVQAGGSLRLSSAASGRISDFYTMGWYRQAPGKERELVAVIRTSGGRTNYADSVKGRFTISRDNAKNTVYLQMNSLKPEDTAVYYCAARVVRYGYKYYYWGQGTQVTVSS | low polyreactivity |
| QVQLVESGGGLVQAGGSLRLSCAAYGRIFSYYAMGWYRQAPGKERELVAASSGNGGSTYYADSVKGRFTISRDHAKNTVYLQMNSLKPEDTAVYYCAAVWWSSDWASLYPYSYDHWGQVTQVTVSS | low polyreactivity |
| QVQLVESGGGLVQAGGSLRLSCAASGITSRYYAMGWYRQAPGKERELVAAITSDGRTNYADSVKGRFTISRDNAKNTVYLQMNSLKPEETAVYYCAVARYPYRYDYWGQGTQVTVSS | high polyreactivity |
| QVQLVESGGGIVQAGGSHRLICAASGFTYIRYAMGWYRQAPGKERELVASISNRGGRTYYADSVKGRFTNSRDNAKNTVYLQMNSLKPEDTAVYYCAAGYSYYSWGQGTQVTVSS | high polyreactivity |
| QVQLVESGGGLVQAGGSLRLSCAASGYIFSSYAMGWYRQAPGKERELVAAISWTGGTYYADSVKGRFTISRDNAKNTVYLQMNSLKPEDTAVYYCAVRYKRKGSGYRTNAYDYWGQGTQVTVSS | high polyreactivity |
| QVQIVESGGGLVQAGGSLRLRCADSGRIFVRYAMGGYIQSPGKDRELVAGITSGSRTNYADSVKGRFTISRDNAKNTVYLQMNSLKPEDTAVYYCAKRYLRYSRLGNYWGQGTQVTVSS | high polyreactivity |
